In patent US20230287402A1 (University of Washington, published 2023):

Legend:
[1] = target: T1, B(c)GFP, cyclic B component with C-terminal GFP (Di13BLB_C_GFP); assay: quantitative fluorescence microscopy of preformed arrays
[2] = target: T1, B(c)GFP, cyclic B component with …; assay: calibrated microscope, corrected for FRET between GFP and mScarlet
[3] = target: T1, B(c)GFP, cyclic B component with …; assay: stepwise array assembly on NIH/3T3 cells

| Binder | mScarlet/GFP fluorescence ratio (arrays formed in vitro) [1] | A/B ratio of arrays generated on cells [2] | binding result [3] |
| --- | --- | --- | --- |
| A(d)mScarlet, dihedral A component with N-terminal mScarlet (A_n_mScarlet) (designed binder, also called AmScarlet) NKIHGSHHHHHHGSTSGSAMVSKGEAVIKEFMRFKVHMEGSMNGHEFEIEGEGEGRPYEGTQTAKLKVTKGGPLPFSWDILSPQFMYGSRAFTKHPADIPDYYKQSFPEGFKWERVMNFEDGGAVTVTQDTSLEDGTLIYKVKLRGTNFPPDGPVMQKKTMGWEASTERLYPEDGVLKGDIKMALRLKDGGRYLADFKTTYKAKKPVQMPGAYNVDRKLDITSHNEDYTVVEQYERSEGRHSTGGMDELYKGGSGGSLALVATGNDTTTKPDLYYLKNSEAINSLALLPPPPAVGSIAFLNDQAMYEQGRLLRNTERGKLAAEDANLSSGGVANAFSGAFGSPITEKDAPALHKLLTNMIEDAGDLATRSAKDHYMRIRPFAFYGVSTCNTTEQDKLSKNGSYPSGHTSIGWATALVLAEINPQRQNEILKRGYELGQSRVICGYHWQSDVDAARVVGSAVVATLHTNPEFQAQLIKAKIEFKQHQK | 1.45 | 0.99 | – |
| A component of design #13 (D3 homooligomer, designed from 1d2t) (designed binder, also called component A; dihedral A) MGHHHHHHGGLALVATGNDTTTKPDLYYLKNSEAINSLALLPPPPAVGSIAFLNDQAMYEQGRLLRNTERGKLAAEDANLSSGGVANAFSGAFGSPITEKDAPALHKLLTNMIEDAGDLATRSAKDHYMRIRPFAFYGVSTCNTTEQDKLSKNGSYPSGHTSIGWATALVLAEINPQRQNEILKRGYELGQSRVICGYHWQSDVDAARVVGSAVVATLHTNPEFQAQLIKAKIEFKQHQKEL | – | – | binds |
